Data reported in patent US20260250320A1, “LIPIDATED PEPTIDE INHIBITORS OF INTERLEUKIN-23 RECEPTOR” (Janssen Pharmaceutica NV, priority 2023, published 2026).
*1 amine or outer side, *2 acyl side, *3 side chain or, on linkers, in order; H or OH if unused. Where a SMILES comes first, the peptide text is derived from it. Bridges are numbered along the chain shown (N, C = ends). Primed or numbered codes have the meaning given here. Where no end group is shown, it is not given here. Side-chain parts run from the residue outwards. [ ]: non-standard residue; d: D form. The star is where a group is joined. ξ: configuration not given here. code d = side-chain group of K(d): lysine given as (2R)-2-(4-((5-amino-5-carboxypentyl)amino)-4-oxobutanamido)-3-carboxy-N,N,N-trimethylpropan-1-aminium, C[N+](C)(C)C[C@@H](CC(=O)O)NC(=O)CCC(=O)*; Me3N+CH2CH2(OCH2CH2)4CO = C[N+](C)(C)CCOCCOCCOCCOCCC(=O)*; Me3N+(CH2)2O(CH2)2O(CH2)2CO = C[N+](C)(C)CCOCCOCCC(=O)*; PEG2′ = PEG2 spacer unit (not further defined); Trp(7-Me) = Cc1cccc2c(C[C@H](N)C(=O)O)c[nH]c12; C20 diacid = O=C(O)CCCCCCCCCCCCCCCCCCC(=O)*; γGlu = O=C(O)[C@H](CCC(=O)[*:2])N[*:1]; 2Nal = N[C@@H](Cc1ccc2ccccc2c1)C(=O)O; AEF = NCCOc1ccc(C[C@H](N)C(=O)O)cc1; ξAEF = NCCOc1ccc(CC(N)C(=O)O)cc1; 3Pal = N[C@@H](Cc1cccnc1)C(=O)O; succiniccarn = not defined here; Lys(Me) = CNCCCC[C@H](N)C(=O)O; NMeK = CN[C@@H](CCCCN)C(=O)O; Pen = CC(C)(S)[C@H](N)C(=O)O; PEG2(3) = not defined here; dAEF′ = not defined here; Thp = NC1(C(=O)O)CCOCC1; Abu = CC[C@H](N)C(=O)O; X1 = C[N+](C)(C)CCCCC*; AEEA = NCCOCCOCC(=O)O; Sar = CNCC(=O)O

T1: IL-23R (Homo sapiens, UniProt Q5VWK5)
T1 construct: HEK293 cells containing IL-23R, IL-12Rβ1 and a firefly luciferase reporter gene driven by a STAT-inducible promoter (Promega); host or cells: HEK293
T1 sequence (Q5VWK5 24-629): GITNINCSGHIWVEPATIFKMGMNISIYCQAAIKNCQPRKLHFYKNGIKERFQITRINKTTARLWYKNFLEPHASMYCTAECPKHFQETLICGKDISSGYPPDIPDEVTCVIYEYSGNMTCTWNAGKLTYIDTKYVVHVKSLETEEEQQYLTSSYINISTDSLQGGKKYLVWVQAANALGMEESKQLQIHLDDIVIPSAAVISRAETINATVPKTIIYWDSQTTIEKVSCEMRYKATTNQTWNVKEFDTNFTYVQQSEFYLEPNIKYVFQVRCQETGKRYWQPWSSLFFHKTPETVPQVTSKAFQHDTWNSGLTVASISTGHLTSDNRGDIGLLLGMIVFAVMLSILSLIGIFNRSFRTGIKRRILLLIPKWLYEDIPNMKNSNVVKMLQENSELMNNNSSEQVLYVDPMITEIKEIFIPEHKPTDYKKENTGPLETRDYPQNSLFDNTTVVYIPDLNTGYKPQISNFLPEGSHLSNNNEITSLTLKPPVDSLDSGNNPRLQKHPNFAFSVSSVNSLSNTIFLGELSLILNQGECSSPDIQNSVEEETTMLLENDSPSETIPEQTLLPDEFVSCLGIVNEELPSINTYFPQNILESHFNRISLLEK

T2: interleukin-23 receptor (IL-23R) (UniProt Q5VWK5 24-629, limits assumed)
T2 sequence (looked up): T1 sequence (Q5VWK5 24-629)

B1: SEQ ID NO: 45 (peptide)
peptide: [dR][Pen]NT[Trp(7-Me)]K(Ac)[Pen][AEF][2Nal][Thp]K(code d)N[3Pal][Sar]-NH2
modifications: disulfide 2-7 (inferred); not fully specified (N-terminus); printed as HOC18gEPEG2PEG2CO-r-Pen(3)-N-T-7MeW-K(Ac)-Pen(3)-AEF-2Nal-THP-K(d)-N-3Pya-Sar-CONH2
B2: SEQ ID NO: 23 (peptide)
peptide: Ac-[dR][Pen]NT[Trp(7-Me)]K(Ac)[Pen][dAEF′][2Nal][Thp]EN[3Pal][Sar]K([PEG2′-PEG2′-γGlu-C18OH])-NH2
modifications: disulfide 2-7 (inferred); reading uncertain; also: printed as MeCO-r-Pen(3)-N-T-7MeW-K(Ac)-Pen(3)-AEF(d)-2Nal-THP-E-N-3Pya-Sar-K(PEG2PEG2gEC18OH)-CONH2
B3: SEQ ID NO: 17 (peptide)
peptide: Ac-K[Pen]NT[Trp(7-Me)]K(Ac)[Pen]X[2Nal][Thp]EN[3Pal][Sar]-NH2
modifications: disulfide 2-7 (inferred); not fully specified (residues 1, 8); printed as MeCO-k(PEG2PEG2gEC18OH)-Pen(3)-N-T-7MeW-K(Ac)-Pen(3)-AEF(d)-2Nal-THP-E-N-3Pya-Sar-CONH2
B4: SEQ ID NO: 20 (peptide)
peptide: succiniccarn-[dR][Pen]NT[Trp(7-Me)]K([PEG2′-PEG2′-γGlu-C18OH])[Pen][AEF][2Nal][Thp]EN[3Pal][Sar]-NH2
modifications: disulfide 2-7 (inferred); reading uncertain; also: printed as succiniccarn-r-Pen(3)-N-T-7MeW-K(PEG2PEG2gEC18OH)-Pen(3)-AEF-2Nal-THP-E-N-3Pya-Sar-CONH2
B5: SEQ ID NO: 32 (peptide)
peptide: {C18OH-γGlu-PEG2′-PEG2′}-[dR][Pen]NT[Trp(7-Me)]K(Ac)[Pen][dAEF′][2Nal][Thp]EN[3Pal][Sar]-NH2
modifications: disulfide 2-7 (inferred); reading uncertain; also: printed as HOC18gEPEG2PEG2CO-r-Pen(3)-N-T-7MeW-K(Ac)-Pen(3)-AEF(d)-2Nal-THP-E-N-3Pya-Sar-CONH2
B6: SEQ ID NO: 31 (peptide)
peptide: succiniccarn-[dR][Pen]NT[Trp(7-Me)]K(Ac)[Pen][AEF][2Nal][Thp]EN[3Pal][NMeK]([PEG2′-PEG2′-γGlu-C18OH])-NH2
modifications: disulfide 2-7 (inferred); reading uncertain; also: printed as succiniccarn-r-Pen(3)-N-T-7MeW-K(Ac)-Pen(3)-AEF-2Nal-THP-E-N-3Pya-NMeK(PEG2PEG2gEC18OH)-CONH2
B7: SEQ ID NO: 18 (peptide)
peptide: succiniccarn-[dR][Pen]K([PEG2(3)-PEG2(3)-γGlu-C18OH])T[Trp(7-Me)]K(Ac)[Pen][AEF][2Nal][Thp]EN[3Pal][Sar]-NH2
modifications: disulfide 2-7 (inferred); reading uncertain; also: printed as succiniccarn-r-Pen(3)-K(PEG2PEG2gEC18OH)-T-7MeW-K(Ac)-Pen(3)-AEF-2Nal-THP-E-N-3Pya-Sar-CONH2
B8: SEQ ID NO: 2 (peptide)
peptide: XNTXXXXXXXNXXK
modifications: not fully specified; MeCO-Pen(3)-N-T-7MeW-K(Ac)-Pen(3)-AEF-2Nal-THP-K(Ac)-N-3Pya-Sar-K(PEG2NMePEG2NMegENMeC18Tetrazole)-CONH2
B9: SEQ ID NO: 19 (peptide)
peptide: Ac-[dR][Pen]NT[Trp(7-Me)]K[Pen][AEF][2Nal][Thp]EN[3Pal]X-NH2
modifications: disulfide 2-7 (inferred); not fully specified (residues 6, 14); printed as MeCO-r-Pen(3)-N-T-7MeW-K(PEG2PEG2gEC18OH)-Pen(3)-AEF-2Nal-THP-E-N-3Pya-NMeK(d)-CONH2
B10: SEQ ID NO: 36 (peptide)
peptide: Ac-[dR][Pen]NT[Trp(7-Me)]K([PEG2′-PEG2′-γGlu-C18OH])[Pen][dAEF′][2Nal][Thp]EN[3Pal][Sar]-NH2
modifications: disulfide 2-7 (inferred); reading uncertain; also: printed as MeCO-r-Pen(3)-N-T-7MeW-K(PEG2PEG2gEC18OH)-Pen(3)-AEF(d)-2Nal-THP-E-N-3Pya-Sar-CONH2
B11: SEQ ID NO: 16 (peptide)
peptide: Ac-[dR][Pen]NT[Trp(7-Me)]K(Ac)[Pen]X[2Nal][Thp]EN[3Pal][NMeK]-NH2
modifications: disulfide 2-7 (inferred); not fully specified (residues 8, 14); printed as MeCO-r-Pen(3)-N-T-7MeW-K(Ac)-Pen(3)-AEF(d)-2Nal-THP-E-N-3Pya-NMeK(PEG2PEG2gEC18OH)-CONH2

Assays:
[1] = test system: IL-23-stimulated phosphorylated STAT3 in peripheral blood mononuclear cells (PBMCs); assay: PBMC pSTAT3 Assay; type: cell-based; conditions: PBMCs from healthy donors; 30 min preincubation with peptide; IL-23 5 ng/mL for 30 min; phospho-STAT3 by MSD
Method in brief: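 Phospho-STAT3 quantified by Meso Scale assay in lysates of PBMCs exposed to IL-23 (5 ng/mL, 30 min, 37 °C) after 30 min peptide pretreatment. Cells were cryopreserved donor PBMCs activated 4 days with anti-CD3 plus IL-1β (100 ng/mL) and starved ~4 h; IC50 reported.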

IL-23R = target: T1, IL-23R; assay: IL23R Reporter Assay; type: cell-based; conditions: HEK293 cells containing IL-23R, IL-12Rβ1 and STAT-inducible firefly luciferase reporter; 10 ng/mL IL-23 (EC90); 5 h
Method in brief: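 IC50 values were fitted with a 4-parameter Hill equation to luciferase signal, scaled between IL-23-only wells (0% inhibition) and 30 μM reference inhibitor (100%). The readout was a STAT-inducible reporter in IL-23R/IL-12Rβ1 HEK293 cells, stimulated with added 10 ng/mL IL-23 (EC90) for 5 h at 37° C and developed with BioGlo.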

[2] = target: T2, interleukin-23 receptor (IL-23R); assay: cell-based or functional assay

| Molecule | IC50 [1] [nM] | IC50 (IL-23R) [nM] | PBMC pSTAT3 IC50 [2] [nM] |
| --- | --- | --- | --- |
| C=C(O)CCCCCCCCCCCCCCCCC(=O)N[C@@H](CCC(=O)NCCOCCOCC(=O)NCCCCCOCC(=O)NCCCC[C@@H]1NC(=O)[C@@H](NC(=O)CCOCCOCC[N+](C)(C)C)CCCC[C@@H](C(=O)N[C@@H](Cc2ccc(OCCOCCOCC[N+](C)(C)C)cc2)C(=O)N[C@@H](Cc2ccc3ccccc3c2)C(=O)NC2(C(=O)N[C@@H](CCCCN(C)C(C)=O)C(=O)N[C@@H](CC(N)=O)C(=O)N[C@@H](Cc3cccnc3)C(=O)N(C)CC(=O)N(C)C)CCCCC2)NC(=O)[C@H](CCCCN(C)C(C)=O)NC(=O)[C@H](Cc2c[nH]c3c(C)cccc23)NC(=O)[C@H]([C@@H](C)O)NC1=O)C(=O)O [compound 158, cPEG3aCO-Pen(3)-K(PEG2PEG2gEC18OH)-T-7MeW-K(NMeAc)-Pen(3)-APEG3F-2Nal-THP-K(NMeAc)-N-3Pya-Sar-CON(Me)2] | 0.5 to 5 | 50 to 500 |  |
| CC[C@@H]1NC(=O)[C@H](Cc2c[nH]c3c(C)cccc23)NC(=O)[C@H]([C@@H](C)O)NC(=O)[C@H](CC(=O)N(C)C)NC(=O)[C@@H](NC(=O)CCOCCOCCOCCOCC[N+](C)(C)C)C(C)(C)SSC(C)(C)[C@@H](C(=O)NC(Cc2ccc(OCCN)cc2)C(=O)N[C@@H](Cc2ccc3ccccc3c2)C(=O)NC2(C(=O)N[C@@H](CCC(=O)O)C(=O)N[C@@H](CC(N)=O)C(=O)N[C@@H](Cc3cccnc3)C(=O)N(C)[C@@H](CCCCNC(=O)COCCOCCNC(=O)COCCOCCNC(=O)CC[C@H](NC(=O)CCCCCCCCCCCCCCCCCCC(=O)O)C(=O)O)C(N)=O)CCOCC2)NC1=O (stereo partly drawn) [compound 152, cPEG5aCO-Pen(3)-N(N(Me)2)-T-7MeW-Dab(NMecPEG5A)-Pen(3)-AEF-2Nal-THP-E-N-3Pya-NMeK(PEG2PEG2gEC20OH)-CONH2] ({Me3N+CH2CH2(OCH2CH2)4CO}-[Pen]D(NMe2)T[Trp(7-Me)][Abu][Pen][ξAEF][2Nal][Thp]EN[3Pal][NMeK]([AEEA-AEEA-γGlu-C20 diacid])-NH2; disulfide 1-6) | < 0.5 | 50 to 500 |  |
| CC(=O)N(C)CCCC[C@@H]1NC(=O)[C@H](Cc2c[nH]c3c(C)cccc23)NC(=O)[C@H]([C@@H](C)O)NC(=O)[C@H](CCCCNC(=O)COCCOCCNC(=O)COCCOCCNC(=O)CC[C@H](NC(=O)CCCCCCCCCCCCCCCCCCC(=O)O)C(=O)O)NC(=O)[C@@H](NC(=O)CCOCCOCC[N+](C)(C)C)C(C)(C)SSC(C)(C)[C@@H](C(=O)N[C@@H](Cc2ccc(OCCCCC[N+](C)(C)C)cc2)C(=O)N[C@@H](Cc2ccc3ccccc3c2)C(=O)NC2(C(=O)N[C@@H](CCCCN(C)C(C)=O)C(=O)N[C@@H](CC(N)=O)C(=O)N[C@@H](Cc3cccnc3)C(=O)N(C)CC(=O)N(C)C)CCOCC2)NC1=O [compound 128, cPEG3aCO-Pen(3)-K(PEG2PEG2gEC20OH)-T-7MeW-K(NMeAc)-Pen(3)-TMAPF-2Nal-THP-K(NMeAc)-N-3Pya-Sar-CON(Me)2] ({Me3N+(CH2)2O(CH2)2O(CH2)2CO}-[Pen]K([AEEA-AEEA-γGlu-C20 diacid])T[Trp(7-Me)][Lys(Me)](Ac)[Pen]Y(X1)[2Nal][Thp][Lys(Me)](Ac)N[3Pal][Sar]-NMe2; disulfide 1-6) | 0.5 to 5 | 50 to 500 |  |
| B1 |  |  | < 0.5 |
| B2 |  |  | < 0.5 |
| B3 |  |  | < 0.5 |
| B4 |  |  | < 0.5 |
| Ac-[dR][Pen]NT[Trp(7-Me)]K(Ac)[Pen][AEF][2Nal][Thp]K(code d)N[3Pal][NMeK]([PEG2′-PEG2′-γGlu-C18OH])-NH2 (disulfide 2-7 (inferred)) [SEQ ID NO: 41] |  |  | < 0.5 |
| B5 |  |  | < 0.5 |
| B6 |  |  | < 0.5 |
| B7 |  |  | < 0.5 |
| B8 |  |  | < 0.5 |
| B9 |  |  | < 0.5 |
| B10 |  |  | < 0.5 |
| B11 |  |  | < 0.5 |
